Laboratory results reported in the nanobody polyreactivity screen of Harvey et al. (2022).

Experiment: yeast display, Sf9 membrane polyspecificity reagent, FACS + sequencing; frameworks hold sequencing errors
How it was run: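 Galactose induction of a Saccharomyces cerevisiae BJ5465 synthetic nanobody display library ran 36–48 hours. The cells were then stained for 1 hour at 4 °C with 10% biotinylated, detergent-solubilized Sf9 membrane reagent, pulled down on streptavidin microbeads and FACS-sorted into low and high (top ~1%) gates on expression and reagent-binding fluorescence. Labels for polyreactivity follow the gate of origin.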

Sequence	polyreactivity (PSR sort gate)
QVQLVESGGGLVQAGGILRLSCAASGNIFESYGMGWYRQAPGKERELVAANSYSGGTTYYADSVKGRFTFSRDNEKNTVYLQMNSLKPEDTAVYYCAARLHHFFTYDYWGQGTQVTVSS	low polyreactivity
QVQLVESGGGLDQAGGSLRLSCAASGGTFDTYAMGWYRQAPGKERELVAGIDWSGGSTYYADSVKGRFTISRDNAKNTVYLQMNSLKPEDTAVYYCAADYYYPSQMDYWGQGTQVTVSS	low polyreactivity
QVQLVESGGGLVQAGGSLRLSCAASGRIFRYYAMGWYIQAPGKERELVAAISGSGGSTYYADSVKGRFTISRDNAKNTVYLQMNSLKPEDTAVYYCNARYRIPSGEGDHWGQGTQVTVSS	low polyreactivity
QVQLVESGGGLVQAGGSLRLSCAASGSIFGTNAMGWYRQAPGKERELVAAINWSGGTTYYADSVKGRFTISRDNAKNTVYLQMNSLKPEDTAVYYCATVFFVLPPTRFDSWGQGTQVTVSS	low polyreactivity
QVQLVESGGGLVQAGGSLRLSCAASGSIFRYYAMGWYRQAPGKERELVAAITSGGRTNYADSVKGRFTISRDNAKNTVYLQMNSLKPEDSAVYYCNKGYNAVWRYRGDYWGQGTQVTVSS	high polyreactivity
QVQLVESGVGLVQAGGSLRLSCASSGYTFFYYSMGWYRQAPGKEREFVAAISTGTGSTYYADSVKGRFTISRDNAKNTVYLQMNSLKPEDTAVYYCAADGTLYYFGLEYDYWGQGTQVTVSS	low polyreactivity
QVQLVESGGGLVQAGGSLRLICAASGRIFRYNALGWYRQAPGKERELVATISGTSRTKYADSVKGRFTISRDNAKHTVYLQMNSLKPEDTAVYYCAARRYGWGRAQSSASYDHWGQGTQVTVSS	high polyreactivity
QVQLVESGGGLVQAGGSLRLSCAASGSTFPFNAMGWYRQAPGKERELVAGIRSRGGSTYYADSVKGRFTISRDNAKNTVYLQMNSLKPEDTAVYYCAKVYKDRDDLFYYWGQGTQVTVSS	low polyreactivity
QVQLVESGGGLVQAGGSLRLSSAASGFTLIPNGMGWYRQAPGKEREFVAAISGTGGRTSYADSVKGRFTISRDNAKNTVYLQMHSLKPEDTAVYYCNARVLVYSERAYKYYLLYDYWGQGTQVTVSS	high polyreactivity
QVQLVESGGGLDQAGGSLRLRCAASGSTFLINAMGWYRQAPGKESELVAAISSSSGNTYYADSVKWRFTISRDNAKNTVYLQMNSLKPEDTAVYYCKAVFTRGVTQYDHYYWGQGTQVTVSS	high polyreactivity
QVQLVESRVGLVQAGGSLRLSCAASGRIFHYYAMGWYRQAPGKERELVAAINASGTSTYYADSVKGRFTISRDNAKNTVYLQMNSLKPEDTAVYYCAAQPYYRGGSYSYTRNSKLIYWGQGTQVTVSS	high polyreactivity
QVQLVESGGGLVQAGGSLRLSCAASGRIFAYYPMGWYRPAPGKERELVAAISRSGVSTYYADSVKGRFTISRDNAKNTVYLQMNSLKPEDTAVYYCAARWRSGFTSGDYWGQGTQVTVSS	low polyreactivity
QVQLVESGGGLVQAGGSLRLSCAASGFTLPANGMGWYRQAPGKERELVAAISFIAGSTYYADSVKGRFTISRDNAKNTVYLQMNSLKPEDTAVYYCATQFPPSTIYYYWGQGTQVTVSS	low polyreactivity
QVQLVESGGGLVQAGGSLRLSCAGSGRTFEINAMGWYRQAPGKERELVAAITVSGGSTYYADSVKGRFTISRDNAKNTVYLQMNSLKPEDTAVYYCAVEIVYGQGKEVNSWGQGTQVTVSS	low polyreactivity
QVQLVESGGGLVQAGGSLRLSCAASGRTFTYNAMGWYRQAPGKERELDAAISWNGGRTYYADSVKGRFTISRDNAKNTVYLQMNSLKPEDTAVYYCAARSPKDSYSIQRYYWGQGTQVTVSS	high polyreactivity
QVQLVESGGGLVQAGGSLRLSCAASGSTSTYNAMGWYRQAPGTERELVAAITESGGSTYYADSVKGRFTISRDNAKNTVYLQMNSLKPEDTAVYYCAADQTYTYDYWGQGTQVTVSS	low polyreactivity
QVQLGESGGGLVQAGGSLRLSCAASGRIFGAYAMGWYRPAPGKERELVAAITSRGGNTYYADSVKGRFTISRDNAKKTAYLQLNSLKPQDTAVYYCAARHDKRRQYYVGQSAFDYGGQGTQVTVSS	low polyreactivity
QVQLVESGGGLVQEGGSLRLSCAASGSTFTYYAMGWYRQAPGKERELVAAISRSGGNTYYADSVKGRFTISRDNAKNTVYLQMNSLKPEDTAVYYCAAYRQVYGFDYWGQGTQVTVSS	high polyreactivity
QVQLVESGGGLVQAGGSLRLSCAASGSIFGYYAMGWYRQAPGKERELVAAISSGDSTYADSVKGRFTISRDNAKNTVYLQMNSLKPEDTAVYYCAADEYYTFSSFELRRMDYWGQGTQVTVSS	low polyreactivity
QVQLVVSGGGLVQAGGSLRLSCAASGRIFVANAMGWYRQAPGKERELVAAISGRGSRTYYADSVKGRFTISRDNAKNTVYLQMNSLKPEDTAVYYCAARYRYDGRYDYWGQGTQVTVSS	high polyreactivity
QVQLVESGGGLVQAGGSLRLSCAASGSTFRTNAMGWYRQAPGKERELVAGITSGTSTNYADSVKGRFTISRDNAKNTVYLQMNSLKPEDTAVYYCNTDRIWYGPEYDYWGQGTQVTVSS	low polyreactivity
QVQLVESGRGLVQAGGSLRLSCAASGSNFRAYAMGWSRQAPGKERELVAAISIGGRTYYADSVKGRFTISRDNAKNTVYLQMNSLKPEDTAVYYCAAVRSYVKGGMYYWGQGTQVTVSS	low polyreactivity

Sequence	polyreactivity (PSR sort gate)
QVQLVESGGGLVQAGGSLRLSCAASGFTFKAYAMGWYRQAPGKERELVAAISNSGGTTYYADSVKGRFTISRDNAKNTVYLQMNSLKPEDTAVYYCAAYQYYIPKMYYWGQGTQVTVSS	high polyreactivity
QVQLVESGGGLVQAGGSLLLTCAASGIIFVIYAMGWYRQAPGKERELVAAITSDGSTSYADSVKGRFTISRDNAKNTVYLQMNSLKPEDTAVYYCAKDFFEHSPVSHTYSSSKYDYWGQGTQVTVSS	low polyreactivity
QVQLVESGGGLVQAGGSLRLSCAASGRIFNGYAMGWYRQAPGKERELVAAITTSGGSTYYADSVKGRFTISRDNAKNTVYLQMNSLKPEDTAVYYCAKYYPRYAYDYWGQGTQVTVSS	low polyreactivity
QLQLVESGGGLVQAGGSLRLSCAASGSIFDVYTMGWYRQAPGKERELVAAINTCGGSTYYADSVKGRFTISRDNAKNTVYLQMNSLKPEDTAVYYCAASVYHYGPLYYWGQGTQVTVSS	low polyreactivity
QVQLVESGGGLVQAGCSLRLSCAASGSTFRRYAMGWYRQAPGKERELVAAISGGGTSTYYADSVEGRFTISRDNAKNTVDLQMNSLKPEDTAVYYCNAKTYYARYDYWGQGTQVSVSS	high polyreactivity
QVQLVESGGGLVQAGGSLRLSCAASGIIFRRYAMGWYRQAPGKERELVAAISSGGRTYYADSVKGRFTISRDNAKNTVYLQMNSLKPEDTAVYYCNARAFARYWWYEYWGQGTQVTVSS	high polyreactivity
QVQLVESGGGLVQAGGSLRLSCAASGRIFSDYAMGWYRQAPGKERELVAVISWDGTNTYYADSVKGRFTISRDNAKNTVYLQMNSLKPEDTAVYYCAATGTSYYSAYDYWGQGTQVTVSS	low polyreactivity
QVQLQESGGGLVQAGGSLRLSCAVSGTIFFPLDMGWYRQAPGRELEYVAAIAEGTSTYYADSVKGRFTISRDNAKNTVYPQMYSLKPEDTAVYYCAAYRSTPQQFHYWGQGTQVTVSS	high polyreactivity
QVQLEESGGGLVQAGGSLRLSCAASGSIFLNYGMGWYRQAPGKERELVAGISNGGSTNYADSVKGRFTISRDNAKNTVYLQMNSLKPEDTAVYYCARPAYKSRGKRFDYWGQGTQVTVSS	low polyreactivity
QVQLVESGGGLVQAGGSLRLSCAASGRIFRYYDMGWYRQAPGKEREFVAAITRSGAITYYADSVKGRFTISRDNAKNTVYLQMNSLKPEDTAVYYCAARYWAKFGYWGQGTQVTVSS	low polyreactivity
QVQLVESGGGLVQAGGSLRLSCAASGRIFYGYAMGWYSQAPGKEREVVATITGIGGSTYADSVKGRFTISRDHAKNTVYLQMNSLKPEDTAVYYCNAERGVYWGRYPYKYDYWGQGTQVTVSS	low polyreactivity
QVQLVESGGGLVQEGGSLRLSCAASGSTFGVYSMGWYRQAPGKERELVAAISYTGGSTYYADSVKGRFTISRDNAKNSVYLQMNSLKPEDTGVFYCAVEVGYTDSPYSYDYWGEGTQVTVSS	low polyreactivity
QVQLVESGGGLVQAGGSLRLSCAASGSIFTRYTMGWCRQAPGKERELVAVISDSSGRTYYADTVKGRFTISRDNGKNTDYLQMNSLKPEDPAVYYCAAEYSDIYEYWGQGTQVTVSS	low polyreactivity
QDQLVDSGGGLLQAGGSLRLSCAASGFTFWQYAMGWYRQAPGKERELVAAISGSGSSTYYADSEKGRFTISRDNAKNTVYLQMISLQPEYTAVYYCATAISRYGRFYYWGQGTQVTLSS	high polyreactivity
QVQLVESGGGLVQAGGSLRLSCAASGFTFWAYAMGWYRPAPGKERELVARISGSGGRTYYADSVKGRFTISRDNAKNTVYLQMNSLKREDTAVYYCNAPYFNWYGYWGQGTQVTVSS	high polyreactivity
QVQLVESGGGLVQAGGSLRLSCAASGFTLDDYAMGWYRQAPGKEREWVAAITSGGTYADSVKGRFTISRDNAKNTVYLQMNSLKPEDTAVYYCNAGNNVVVDYDYWGQGTQVTVSS	low polyreactivity
QVQLVESGGGLVEAGGSLRLSCAASGLTFEVYAMGWYRHAPGKERELVAVITSVGSTNYADSVKGRFTISRDNAKNTVYLQMNSLKPEDTAVYYCAADKWTVRRFNPYTYYRYDYWGQGTQVTVSS	low polyreactivity
QVQLVESGGGLVQAGGSLRLSCAASGSIFARNAMGWYRPAPGKERELVAVITTGGRTYYADSVKGRFTISRDNAKNTVYLQMNSLKPEDTAVYYCATRVIYGHSGGYWGQGTQVTVSS	high polyreactivity
QVQLVESGGGLVQAGGSLRLSCAASGFTFGGYVMGWYRQAPGKERELVAAISSSGGITHYADSVKGRFTISRDNAKNTVYLQMNSLKPEDTAVYYCNALYRQRYYWGQGTQVTVSS	high polyreactivity
QVQLVESGGGLVQAGGSLRLSCAASGRTDFNTMGWYRQAPGKERELVAAITSTGRTYYADSVKGRFTISRDNAKNTVYLQMNSLKPEDTAVYFCAAVWRYKGLLLPSYYYWGQGTQVTVSS	high polyreactivity
QVQLVESGGGLVQAGGSLRLSCAASGSIFKWYAMGWYRQAPGKERALVATISSSGSSTYYADSVKGRLTISRDNAKNTVYLQMNSLKPEDTAVYYCATTYGWRYPAMDYWGQGTQVTVSS	high polyreactivity
